Test results published in US20170115291A1, “Activating JAK Kinase Biomarkers Predictive of Anti-Immune Checkpoint Inhibitor Response” (Dana-Farber Cancer Institute, Inc., priority 2014, published 2017).

Assays:
PD-L1 = target: T1, PD-L1 (Homo sapiens, UniProt Q9NZQ7); assay: Phase 1 study of MPDL3280A in a patient with metastatic lung adenocarcinoma; assay type: in vivo
T1 construct: their tumor was also tested for PD-L1 expression and found to be positive; endogenous in cells; host or cells: tumour cells and immune cells (macrophages/monocytes) of a patient with metastatic lung adenocarcinoma
Description: The patient also consented to enroll on a phase 1 multicenter open-label dose-escalation study to evaluate the safety, tolerability, and pharmacokinetics of MPDL3280A (DF/HCC Protocol 11-314; NCT#01375842). […] As part of the inclusion criteria, their tumor was also tested for PD-L1 expression and found to be positive. The drug was administered as a single agent at a dose of 20 mg/kg every 3 weeks. […] Tumor response and evaluation was performed by physical examination and serial chest/abdomenipelvic CT scans, and target lesions were evaluated using RECIST criteria. Following treatment discontinuation at 1 year, the patient has continued to be monitored every 3 months by examination and CT scans.
Thus, after a temporary decline, the patient subsequently received sixteen cycles of MPDL3280A over a one-year period. […] They completed one year of therapy per protocol and remained without evidence of disease progression for an additional 12 months. At this point, they began to lose weight again and developed regrowth of the right adrenal mass (FIG. 1D), leading to re-initiation of MPDL3280A therapy.

[1] = test system: CD4+ T cells and CD8+ T cells; assay: T cell proliferation assay, monocytes from blood pre- and 1 h post-MPDL3280A infusion; assay type: cell-based, human; conditions: in the presence of circulating MPDL3280A (1 h post- vs pre-infusion), especially with monocytes primed with IFNγ
Description: PBMCs were isolated from patient blood samples immediately pre- and 1 h post-treatment with MPDL3280A, as well as from a normal donor by Ficoll and plated in a density of 4×10^6 cells/ml to a 96-well plate. After 2 h at 37° C. non-adherent cells (lymphocyte portion) were removed by pipetting and remaining adherent cells (monocyte portion) were cultured with or without 250 ng/ml IFNγ. At 24 h, non-adherent lymphocytes were labeled with CFSE. Monocytes (IFNγ treated or untreated) were harvested by 5 mM EDTA treatment and resuspended in fresh medium. Both lymphocytes and monocytes were then plated to a 96-well plate pre-coated with 10 μg/ml OKT3 antibody. Proliferation of CD4+ T cells and CD8+ T cells were monitored at 72 h post-stimulation by CSFE dilution.

[2] = Chemotherapy of the patient before MPDL3280A; assay type: in vivo, human; conditions: one patient, single cycle
Source text: He then developed a perirectal abscess and was switched to dose-reduced carboplatin and pemetrexed, together with bevacizumab for three additional cycles and was transitioned to maintenance pemetrexed and bevacizumab.

[3] = one patient, sixteen cycles over one year

T1 sequence (Q9NZQ7 19-290): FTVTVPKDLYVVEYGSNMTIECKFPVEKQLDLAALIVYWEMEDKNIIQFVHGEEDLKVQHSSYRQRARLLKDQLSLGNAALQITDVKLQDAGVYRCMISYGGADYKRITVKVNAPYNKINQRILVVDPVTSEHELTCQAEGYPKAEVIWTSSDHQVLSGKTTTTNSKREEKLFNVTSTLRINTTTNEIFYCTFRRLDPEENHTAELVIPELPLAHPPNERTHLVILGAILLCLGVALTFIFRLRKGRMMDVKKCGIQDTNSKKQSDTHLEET

MPDL3280A: an engineered anti-PDL1 antibody (Genentech)
Time without evidence of disease progression after completing one year of therapy (PD-L1; off therapy): 12 months
Tolerability (PD-L1; one patient, 20 mg/kg every 3 weeks, 16 cycles): tolerated well other than a mild flare of their underlying chronic obstructive pulmonary disease
Tumor response by RECIST criteria (PD-L1; one patient, 20 mg/kg every 3 weeks, sixteen cycles over a one-year period): partial response
Size of the paratracheal mass on serial chest CT scans (PD-L1; one patient, FIG. 1 panel C): reduction in size
Right adrenal lesion on restaging scans after re-initiation of therapy (PD-L1; one patient, after another 3 months of MPDL3280A): rapid improvement
Body weight (PD-L1; [3]): return to pre-diagnosis body weight
Narcotic pain medication (PD-L1; [3]): discontinuation of all narcotic pain medication
Symptoms (PD-L1; [3]): complete resolutions of their symptoms
T cell activation (proliferation of autologous or allogeneic CD4+/CD8+ T cells) [1]: significantly greater

carboplatin and paclitaxel
Tolerability [2]: tolerated poorly
